Source: PMC4018528

Target: recombinant His-tagged Sp4E-BP (Strongylocentrotus purpuratus 4E-BP) (Strongylocentrotus purpuratus)
Assay: SPR; Sp4E-BP immobilised (60 uRIU) by amine coupling on a mixed SAM chip; Flag-MmIF4E1:m7GTP injected from 4.37 uM to 53.9 nM (3-fold dilution series); 25°C; HEPES 50 mM pH 7.7, KCl 150 mM, 0.5% Igepal; flow 25 uL/min; global fit, one step 1:1 reaction (Scrubber 2.0a)

- Kd: 23 nM
- koff: 0.00022 s⁻¹
- kon: 9300 M⁻¹ s⁻¹
Substance: Flag-tagged MmIF4E1 (eIF4E1 from Mus musculus), as Flag-MmIF4E1:m7GTP (from UniProt P63073 1-217) (natural protein)
